Reference: US20140328841A1 (BRIGHAM AND WOMEN S HOSPITAL, published 2014)

T1: mouse CEACAM1 (mouse, UniProt P31809 35-521, limits assumed)
T1 sequence (looked up): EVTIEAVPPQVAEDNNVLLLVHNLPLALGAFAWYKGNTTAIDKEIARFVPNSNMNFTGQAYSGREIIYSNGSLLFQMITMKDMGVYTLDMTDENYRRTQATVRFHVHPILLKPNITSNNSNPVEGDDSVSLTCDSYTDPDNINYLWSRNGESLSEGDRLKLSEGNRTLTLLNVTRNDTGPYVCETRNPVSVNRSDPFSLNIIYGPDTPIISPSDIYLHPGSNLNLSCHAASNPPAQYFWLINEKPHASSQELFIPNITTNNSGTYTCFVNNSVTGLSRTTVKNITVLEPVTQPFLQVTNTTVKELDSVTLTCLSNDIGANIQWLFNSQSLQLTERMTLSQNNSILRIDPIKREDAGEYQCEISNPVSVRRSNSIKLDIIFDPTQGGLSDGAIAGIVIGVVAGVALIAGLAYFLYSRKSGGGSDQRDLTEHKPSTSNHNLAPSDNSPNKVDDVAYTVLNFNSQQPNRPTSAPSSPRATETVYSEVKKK

B1: 5F4 mouse anti-human CEACAM1 monoclonal antibody (hybridoma 5F4/2C6/2H3) (antibody, mouse IgG1, V domains shown)
VH: EVQLVESGGDLVKPGGSLKLACAASGFIFSSHGMSWVRQTPDKRLEWVATISSGGTYTYYPDSVKGRFTISRDNDKNTLYLQMNSLKSEDTAMYYCARHDFDYDAAWFAYWGQGTLVTVSA
VL: QIVLTQSPALMSASPGVKVTMTCSANSSVSYMYWYRQKPRSSPKPWIYLTSNLASGVPARFSGSGSGTSYSLTISSMEAEDAATYYCQQWSSNPPTFGSGTKLEIK
notes: also called 5F4 antibody; 5F4 monoclonal antibody

Tests used:
[1] = target: human CEACAM1 (human) (UniProt P13688); test: flow cytometry dot plot (x: mIgG1 CONTROL, y: FITC). Cells of the MOPC-treated mouse group, isotype control staining for the 5F4 panel above it.
Sequence of human CEACAM1 (human) (P13688 35-526): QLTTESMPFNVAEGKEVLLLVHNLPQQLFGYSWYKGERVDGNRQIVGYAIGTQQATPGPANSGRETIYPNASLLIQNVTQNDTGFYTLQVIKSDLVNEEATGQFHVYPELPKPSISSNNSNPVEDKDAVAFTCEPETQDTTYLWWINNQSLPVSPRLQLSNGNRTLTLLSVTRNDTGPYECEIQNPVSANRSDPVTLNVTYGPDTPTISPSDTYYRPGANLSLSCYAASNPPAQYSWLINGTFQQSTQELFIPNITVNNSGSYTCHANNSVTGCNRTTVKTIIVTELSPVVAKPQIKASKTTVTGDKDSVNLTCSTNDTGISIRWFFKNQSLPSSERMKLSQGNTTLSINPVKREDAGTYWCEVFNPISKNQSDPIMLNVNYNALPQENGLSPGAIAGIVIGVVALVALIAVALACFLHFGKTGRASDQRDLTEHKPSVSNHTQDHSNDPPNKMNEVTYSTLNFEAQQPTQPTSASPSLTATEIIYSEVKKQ

[2] = target: T1, mouse CEACAM1; test: flow cytometry dot plot (x: mIgG1 CONTROL, y: FITC). Cells of the 5F4-treated mouse group, isotype control staining for the 5F4 panel above it.
[3] = target: human CEACAM1 (human) (UniProt P13688); test: flow cytometry dot plot (x: hCEACAM1 (5F4), y: FITC). Per the legend, axillary lymph node cells of an MOPC-treated Rag2-/- mouse 2 weeks after s.c. AsPc-1 inoculation. Gated events spread from about 10^3 to above 10^4 on the x axis. The panel is marked *.
[4] = target: T1, mouse CEACAM1; test: flow cytometry, 5F4 staining of lymph node cells of the 5F4-treated mouse group (mouse cells; per the legend no human CEACAM1+ cells present)

Molecule	number printed in the same gate of the dot plot [1]	number printed in the same gate of the dot plot [2]	number printed in the hCEACAM1 (5F4)-positive gate of the dot plot [3]	binding result [4]
mIgG1 CONTROL (antibody)	0.667	1.27		
B1			2.15	no binding
